Source: the nanobody polyreactivity screen of Harvey et al. (2022)

Assay: yeast display, Sf9 membrane polyspecificity reagent, FACS + sequencing; frameworks hold sequencing errors
Method in brief: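 A synthetic nanobody library was expressed on Saccharomyces cerevisiae BJ5465 by galactose induction for 36–48 hours. The library was stained for 1 hour at 4 °C with 10% biotinylated, detergent-solubilized Sf9 membrane reagent and enriched with streptavidin microbeads before FACS. Low and high (top ~1%) gates were set on anti-HA fluorescence for expression and streptavidin fluorescence for reagent binding, and each polyreactivity label reflects the gate of origin.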

QVQLVESGGGLVQAGGSLRLSCAASGFISNDNAMGWYRQAPGKERELVATIDISDASTYYADSVKGRFTISRDNAKNTVYLQMNSLKPEDTAVYYCAAESDEWFTWYWYGYWGQGTQVTVSS
polyreactivity (PSR sort gate): low polyreactivity

QVQLVESGGGLVQAGGSLLLSCAASGFIFDYNAMGGYRPAPGKETELVAAISRSGGSTYADSVKGRFTFSRDNAMNTVYLQMNSLKPEDTAVYYCAADILSRSRSRRVDYWGQGTQVTVSS
polyreactivity (PSR sort gate): low polyreactivity

QVQLVESGGGLVQAGGSLRLSCAASGITFPKYAMGWYRQAPGKERELVAAITKSGGSTYYADSVKGRFTISRDNAKNTVYLQMNSLKPEDTAVYYCAVVSRGITKYDYWGQGTQVTVSS
polyreactivity (PSR sort gate): high polyreactivity

QDQLVESGGGLVQAGGSLRLSCAASGFIFGLYAMGWYRQAPGKERELVAAISSGGSTYYADSVKGRFTISRDNAKNTVYLQMNSLKPEDTAVYYCAAYYVYSEYDYWGQGTQVTVSS
polyreactivity (PSR sort gate): high polyreactivity

QVQLVESGGGLVQAGGSLRLRCAASGRTFTAYTMGLYRQAPGKEREFVASISSGVTYADSVKGRFTISRDNAKITVYLQMNSLKPEDTAVYYCAARLWYVQGYVPYVHHRFDYWGQGTQVTVSS
polyreactivity (PSR sort gate): low polyreactivity

QVQLVESGGGLVQAGGSLRLSCAASGRIFIWYGMGCYRQAPGKERELVADISSTGSTNYADSVKGRFTISRDNAKNTVYLQMNSLKPEDTAVYYCAADPETPYYTTYDYDYWGQGTQVTVSS
polyreactivity (PSR sort gate): low polyreactivity

QVQLVESGGGLVQAGGSLRLSCAASGFIIGYYAMGWYRQAPGKVREFVAAISRSGGSTYYADSVKGRFTISRDNAKNTVYLQMNSLKPEDTSVYYCAADYQKTYTSKFNYWGQGTQVTVSS
polyreactivity (PSR sort gate): high polyreactivity

QVQLVESGGGLVQAGGSLRLTCAASGNIFYTYAMGWYRQPPGKERELVAGLSSDGSTTYADSVKGRFTISRDNAKNTVYLQMNSLNPEDTAVYYCPADITGILWYGYYYWGQGTQVTVSS
polyreactivity (PSR sort gate): low polyreactivity

QVKLVESGGGLVQAGGSLRLSCAASGSTYWQYSMGWYRHAPGKEREFVAAISSRGGSTYYADSVKGRFTISRDNAKNTVYLQMNSLKPEDTAVYYFAAKNYFAFIRTYRYVHRPTYYYWGQGTQVTVSS
polyreactivity (PSR sort gate): high polyreactivity

QVQLVETGGGLVQAGGSLRLSCAASGSTFYRNTKGCYRQAPGKEREFVAGISDRGTSTYYADSVKGRFTISRDNAKNTVYLQMNSLKPEDTAVYYCNKRSWPAYVHKYDYWGQGTQVTVSS
polyreactivity (PSR sort gate): low polyreactivity

QVQLVESGGGLVQAGGSLRLSCAASGRTFNRNAMGWYRQAPGKERELVAAISWGGSRTYYADSVKGRFTISRDTAKNTVYLQMNSLKPEDTAVYYCAVDGFRGRSHGANDYWGQGTQVTVSS
polyreactivity (PSR sort gate): high polyreactivity

QVQLVESGGGLVQAGGSLRLSCAASGLTFGNYAMGWDRQAPGKERELVAAISWGGGITYYADSVKGRFTISRDIAKNTVYLQMNSLKPEDTAVYYCAADVYFNSTPDYLYDYWGQGTQVTVSS
polyreactivity (PSR sort gate): low polyreactivity

QVQLVESGGGVVHAGGSLRLSCAASGRIFRKYAMGWYRQAPGKESEFVAAITWSGGSTYYADSVKGRFTISRDNAKNTVYLQMNSLKPEDTAVYYCNAENGYSWDVFSDYWGQGTQVTVSS
polyreactivity (PSR sort gate): low polyreactivity

QVQLVESGGGLVQAGGSLRLSCAASGFTFPGYAMGWYRQAPGKERELVAAISKRGGSTYYADSVKGRFTISRDNAKNTVYLQMNSLKPEDTAVYYCAKSRRGSFYYPYTYTKSGYEYWGQGTQVTVSS
polyreactivity (PSR sort gate): high polyreactivity

QVQLVESGGGLVQAGGSLRLSCAASGITFAIYDMGWYRQAPGKERELVAVISGRGGSTYYADSVKGRFTISRDNAKNTVYLQMNSLKPEDTAVYYCAARGEASIFAGYDYWGQGTQVTVSS
polyreactivity (PSR sort gate): low polyreactivity

QVQLVESGGGLVQAGGSLRLSCAASGFIFYAYAMGWYRQAPGKERELVAAITRSGGSTYYADSVKGRFTISRDNAKNTVYLQMNSLKPEDTAVYYCAARQRTKLGYWGQGTQVTVSS
polyreactivity (PSR sort gate): high polyreactivity

QVQLVESGGGLVQAGGSLRLSCAASGSTFKFNDMGWYRQAPGKERELVAAISRGGRTNYADSVKGRFTISRDNAKNTVYLQMNSLKPEDTAVYYCAADYSTLYKYDYWGQGTQVTVSS
polyreactivity (PSR sort gate): low polyreactivity

QVQLVESGGGLVHAGGSLRLSCAASGSIITYYAMGWSRQAPGKERELVAVISASGGRTYYADSVKVRFTISLDNAMYSVYLQMNSLKPEDTAVYYCAAYRSIYSFKFGYWGQGSQVTVSS
polyreactivity (PSR sort gate): high polyreactivity

QVQLVESGGGLVQAGGSLRLSCAASGSTFTVNAMGWYRQAPGKERELVAAIRWSGDSTYYADSVKGRFTISRDNAKNTVYLQMNSLKPEDTAVYYCARDLYWGSYNYWGQGTQVTVSS
polyreactivity (PSR sort gate): low polyreactivity

QVQLVESGGGLVQAGGSLRLSCAASGFTFEYYAMGWYRQAPGKERELVAAIDTGGSTNYADSVKGRFTISRDNAKNTVYLQMNSLKPEDTAVYYCAADWSWWDGEDYHFEYDYWGQGTQVTVSS
polyreactivity (PSR sort gate): low polyreactivity

QVQLVESGGGLVQAGGSLRLSCAASGITFSVNAMGWYRQAPGKEREFVAAISSSGGSTYYADSLKGRFTISRDNAKNTVYLQMNSLKPEDTAVYYCAASGRVQRQHYRPYPYGYWGQGTQVTVSS
polyreactivity (PSR sort gate): high polyreactivity

QVQLVEAGGGLVQAGGSLRLSCAASGNTLYGNAMGWYLQAPGKERELVAAISWSGGSTSYADSVKGRFTISRDNAENTVYLQMNSLKPEDTAVYYCATQGFYKDYSRYDYWGQGTQVTVSS
polyreactivity (PSR sort gate): low polyreactivity

QVQLVESGGGLVQAGGSLRLSCAASGYTFTGYAMGGYRQAPGKERECVAGITWRTGRTYYADSVKGRFTISRDNAKNTGYLQMNSLIPEDTAVYYCNKDHQRGYYWSYDYWGQGTQVTVSS
polyreactivity (PSR sort gate): low polyreactivity

QVQLVESGGVLVQAGGSLRLSCAASGRTFGHYAMGWYRQAPGKERELVAAITRDDGTNYADSVKGRFTISRDNAKNTVYLQMNSLKPEDTAVYYCDRDVLEKYRQSWGYVPLQGYDYWGQGTQVTVSS
polyreactivity (PSR sort gate): low polyreactivity

QVQLVESGGGLVQAGGSLRLSCAASGRILGDNVMGWYRQAPGKERELVAAISSGSGSTYYADSVKGRFTISRDNAKNTVYLQMNSLKPEDTAVYYCAAGPYIYPRYDYWGQGTQVTVSS
polyreactivity (PSR sort gate): low polyreactivity

QVQLVESGGGLVQAGGSLRLSCAASGIIFVDYVMGWYRQAPGKERELVAAITYTGGSTYYADSVKGRFTISRDNAKNTVYLQMNSLKPEDTAVYYCAARRNDRFFPAYYYWGQGTQVTVSS
polyreactivity (PSR sort gate): high polyreactivity

QVQLVESGGGLVQAGGSLRLSCAASGSIFGENARGWYRQAPGKERELVAAITSGGSTYYADSVKGRFTISRDNAKNTVYLQMNSLKPVDTAVYYCAASGRVGPGYWYDSWGQGTQVTVSS
polyreactivity (PSR sort gate): low polyreactivity

QVQLVESGGGLVQAGGSLRLSCAASGITYGRYTMGWYRQAPGKERELVAAITNGDITDYADSVKGRFTISRDNAKNTVYLQMNSLKPEDTAVYYCAALLLYQNDHWGQGTQVTVSS
polyreactivity (PSR sort gate): high polyreactivity

QVQLVESGGGLVQAGGSLRLSCAASGSTFRRNAMGWYRQAPGKERELVAAITSTDSTYYADSVKGRFTISRDNAKNTVYLQMNSLKPEDTAVYYCAKGYCWGGQMGYWGQGTQVTVSS
polyreactivity (PSR sort gate): low polyreactivity

QVQLVESGGGLVQAGGSLRLSCAASGSTFEYYAMGWYRQAPGKERELVAAISSGPSTTYADSVKGRFTISRDNAKNTVYLQMNSLKPEDTAVYYCAARTYPSYYVTFEYWGQGTQVTVSS
polyreactivity (PSR sort gate): low polyreactivity

QVQHVESVGGLVQAGGSLRLSCAASGGIFWVYAMGWYRQAPGKERELVAAISNSDTSTSYADSVKGRFTISRDNAKNTVYLQMNSLKPEDTAVYYCNADSPSLSGDYWGQGTQVTVSS
polyreactivity (PSR sort gate): low polyreactivity
